The values that follow come from patent US20240343773A1 (AMIDEBIO, published 2024).

The term Kd denotes the concentration at which binding is half-saturated.

This assay concerns the target insulin receptor (IR) (UniProt P06213 28-1382). Kind of assay: method not stated; in the absence of glucose.

Residue numbers refer to the chain shown, from its start. Ends that are not written are not given here.

B1: SEQ ID NO: 5 (ligand)
chain: FVDQHLCGSHLVEALYLVCGERGFFYTPKTYDGKGIVEQCCTSICSLYQLENYCG
modifications: ends and bridges not checked; cysteine pairing not given here
notes: Single chain insulin analog (B chain-C'-A chain)
Take B1: the Kd amounted to 4.51 nM.

B2: SEQ ID NO: 7 (ligand)
chain: B1 chain with D3G
modifications: ends and bridges not checked; cysteine pairing not given here
notes: as for B1
Molecule B2 registered a Kd of 1.21 nM.
